The text below walks through data of a protein production outcome set (Wang et al. 2014).

This series in a line: label from the status in PepcDB records.

Turning to “NNINVITDQMGNLDIKSNDNINQNTQNSNVASDLNLLTQNKYLENILMMNTYGVNYDHLFLPQNVAYLAAQQLSNNIMNNRNQINAAYTSQQYPNQSIPIKNIYDQSHLKYQQNSSSWRPPLNNGNIYDGVKSNPMGLHILQNGIDLYTNVDSNSVTSAINFDKYDSIPVSVTGPDYSATNVIENFDELKLDPTIRNNILLASYQRPTPIQKNAIPAILEHRDIMACAQTGSGKTAAFLIPIINHLVCQDLNQQRYSKTAYPKCLILAPTRELAIQILSESQKFSLNTPLRSCVVYGGADTHSQIREVQMGCHLLVATPGRLVDFIEKNKISLEFCKYIVLDEADRMLDMGFEPQIRKIIEESNMPSGINRQTLMFSATFPKEIQKLAADFLYNYIFMTVGRVGSTSDSIKQEIIYMTDVEKLNYLKNIFNTTAPNTLILIFVETKKGADSLARFLLSKGYPVSSIHGDRSQVEREAALSMFRNGQCPILVATAVAARGLDIPNVKHVINYDLPSDIEEYVHRIGRTGRLGNHGRATSFYVDKNNNIAIDLVDLLKEANQIVPQWLSALADELKRNSTMGSNNKRHNQRRYKNGNFGGRDYRQGPSNVNMNSGVNPDYFISGSVAPRHAKLNNGNYFPRSNELHDQHQKQNNNNNQVISNTFHTGISASHLIPGYATFNRQQAPLHFIPHQTNNTQFLSSSGQMALYNRMQNSGHMAPNQRFPNEPIHHQQEQLPITYNFSKNLPYLGQSYSGHNNNNNNNNNTSKINDSDSCYFGNKTPR”, the protein production result is reported as “not failed”.
Consider “NNNSKINLFCVPSAGSSASIFSAWDKTSAENLKVIALEYPGHGRKIQQSLSHDPDFLAHQFSLEILAYGNTPYVLFGHSVGASLIWKIEEKLKLLHADHNLILKIVSARPSPLFQNLIHNYSHLTDEQMIKELRLYNNFPDEILNNASALNFFLPIIKNDFILSDNMLKKPIFKSSVPLMSVYGEADPYIKNHNIMESWSTYTNKWLGAHQFSGDHFYFLDTTILQKMLHLIQEKIY”, for which the protein production entry is recorded as “failed”.
On to “NNVIGALCVFQDISELVGIKELNERFQKILETSHDLICFIDENRKISYINPTYEKCLNIKSEDVLGKDLMKISPD”, for which the protein production entry was “failed”.
Take “NPDYVEVDRILEVAHTKDAETGEEVTHYLVKWCSLPYEESTWELEEDVDPAKVKEFESLQV”: the protein production result was “not failed”.
As for “NSAAIQEMNREVEAAAKRTSPVFLTGEAGSPFETVARYFHKNGTPWVSPARVEYLIDMPMELLQKAEGGVLYVGDIAQYSRNIQTGITFIIGKAERCRVRVIASCSYAAGSDGISCEEKLAGLFSESVVRIPPLS”, the protein production result is “failed”.
With “NSDVPENTHLVSKEVQAAFNAKYPQAKDVEWELKGDYAVADFYWDGGEHSAWFNPLSAAWYMTETDVRYENLPEPVLAAHKAGKYADWRVDDVDKLTREGMETLYVIEVEKGESELDLFYSSTGILVKTVVDTGHEEDYDDYLPQPDANGIIAIVKQKYPNATIVEIEREKGLQEVTILDENKEKEVYFNERNEWMGTSWDVQVANLPEAVKKSVMEKYSDYVIDDADYVVTPDNEWYILDLENKQIDKELKVKVDKDGVWL”, the protein production entry is “not failed”.
For the sequence “NTAPSLTVPECAICLQTCVHPVSLPCKHVFCYLCVKGASWLGKRCALCRQEIPEDFLD”, the protein production entry is given as “not failed”.
As for “NVGVFVLMHGDSTASSMLKTAQELLGTSIGTAMNMPLTMEVQTMYEQLRNQVITQKESLNNGILLLTDMGSLNSFGNMLFEETGIRTKAITMTSTMIVLEAIRMASVGRSLEDIYQNIQLSFESVVREQFRSSLQK”, the entry is “not failed”; as for “NVRVITDENWRELLEGDWMIEFYAPWCPACQNLQPEWESFAEWGEDLEVNIAKVDVTEQPGLSGRFIINALPTIYHCKDGEFRRYQGPRTKKDFINFISDKEWKSIEPVSSWF”, “not failed”; as for “PATPKKIKKEKKVPKLPRKDYWQAAMVIIISSIVLIASLFMISPLSRQKEITVSGNKNAIESQLIEELGIKKSDYLTTLLFQANRFERNLKSKDKWVKEAKLVYHFPNHFTLRVKEYRIIAYRQTDKGYVPILENGTRVDTVNASELPGSFVTINLDQEKEVRELVQKLAKLDKSLVGSIKVISSVNSSSTKDLLLLEMKDNNSVRVPLSEIDTKLPYYSKIKKNLTDGSIVDMEVGIYSTTADIEASIAEHKTTATTESSENS”, “failed”.
“PCHHRITLDEFYQLFTNNKNIHLIDVRSTKEHQIQNIGGIVLPLDELPQRLHELNPNRLIILYCQSGTRSKMALDILLKAGFASVKYIENGLKGVTDNYNKDMPQ”: the protein production result is given as “failed”.
Take “PEAERSTISLTRLHATIQNAPGVLGLVCTIIGEAGGNIVNLRMHHRQSDFFDTDIDVEVRDAKHLTNIQAALRACPSVETVDRTR”: the protein production result was “failed”.
Then “PEKLPYLVELSPDGSDSRDKPKLYRLQLSVTEVGTEKFDDNSIQLFGPGIQPHHCDLTNMDGVVTVTPRSMDAETYVDGQRISETTMLQSGMRLQFGTSHVFKFVDP”, with “not failed”; and “PETVCWGHVEEVELINDGSGLGFGIVGGKTSGVVVRTIVPGGLADRDGRLQTGDHILKIGGTNVQGMTSEQVAQVLRNCGNSVRMLVARDPAGDISVT”, with “not failed”.
As for “PFKAGKARGLTTEQLNTRLDIDEFETGLMRLAQDSFSTDDYLFQEGQYLDEDTVLSWLARKKTGSDLKKAEKEDKNFKNEGLNPALPSSGSTEEKNESSPIYLASMLEHDYLVRKDKNSIQLGGVMIGLALNSVYYYREKTGDPQKEVEIKDSTLRQQGEKIAQEVINRLRKKDNLKNVPITVALYKQASKTSIVPGNFIAKTEVKAGSTDISNWDDINEKYVFYPADTTTAEKYPDDTEVFKRFKNSIEEYFPNYTGVVGTALYENDEMKKMKIDIPMQFYGKSEVVAFTQFLTGEVMDYYSKSSVDVEVNITSSDGQEAVIIRNAGDKEPTVHIYD”, the protein production result is reported as “failed”.
As to “PGVELRTAADFADDPRPLFELDAETSGDEPGDVDHEFTDYEAWLEETWRHPLLSHELTSVALVDGRPAAFSAARTDGATRYHTGMTGTARAFRGRGLAKLAKNDSLHRARAAGFTEAFTGNDAGNEPMLAINKWFGYEICATEVRYVRELG”, the protein production result is recorded as “failed”.
Regarding “PIKMGWLKKQRSIVKNWQQRYFVLRAQQLYYYKDEEDTKPQGCMYLPGCTIKEIATNPEEAGKFVFEIIPASWDQNRMGQDSYVLMASSQAEMEEWVKFLRRVAG”, the protein production entry is given as “not failed”.
On to “PITFWYGKYIILIPSSYFKSVIDKRLKYIILHEYAHAKNRDTLHLIIFNIFSIIMSYNPLVHIVKRKIIHDNEVEADRFVLNNINKNEFKTYAESIM”, for which the protein production entry is on record as “failed”.
As to “PKKIMLVAGHGYNDPGAVGNGTNERDFIRKYITPNIAKYLRHAGHEVALYGGSSQSQDMYQDTAYGVNVGNKKDYGLYWVKSQGYDIVLEIHLDAAGESASGGHVIISSQFNADTIDKSIQDVIKNNLGQIRGVTPRNDLLNVNVSAEININYRLSELGFITNKNDMDWIKKNYDLYSKLIAGAIHGK”, the protein production result is “failed”.
Regarding “PLKEQKVINTANIKTNSKLDLAEYENGLINIATQQFDTESHVLQLNQYIPEKLIDELVAKVEAPVLTNIIEQDYFGKQNSNELSLSGVMIGLAMSSSVSNEEAMSKGTEVAKQLIEAINKNDKYNKSPITFAIFKQESTSSLKNGTYIASATVQKNDTNLGNWSTIDEKSYSYPSDEFTQAHGEDNTKINNFAKEIKGFSNGDFIPVNAKVSYKKDQMDTLNMNIVIKYNGKTELMALTQLAAQGMLDKLPKDAKVQLQIKSESKIEAVIIKEKNSDKPFVSFL”, the protein production entry is on record as “not failed”.
For the sequence “PRLLCTATKQKNSGQNLEEDMGQSEQKADPPATEKTLLEEKVKLEEQLKETVEKYKRALADTENLRQRSQKLVEEAKLYGIQAFCKDLLEVADVLEKATQCVPKEEIKDDNPHLKNLYEGLVMTEVQIQKVFTKHGLLKLNPVGAKFDPYEHEALFHTPVEGKEPGTVALVSKVGYKLHGRTLRPALVGVVKEA”, the protein production entry was “failed”.
For “PSARDILQQGLDRLGSPEDLASRIDSTLLSPRATEEDVRNLVREASDYGFRCAVLTPVYTVKISGLAEKLGVKLCSVIGFPLGQAPLEVKLVEAQTVLEAGATELDVVPHLSLGPEAVYREVSGIVKLAKSYGAVVKVILEAPLWDDKTLSLLVDSSRRAGADIVKTSTGVYTKGGDPVTVFRLASLAKPLGMGVKASGGIRSGIDAVLAVGAGADIIGTSSAVKVLESFKSLV”, the protein production entry is given as “not failed”.
